From patent publication US20240100176A1 (Eli Lilly, published 2024)

Columns and labels:
Test in all cases: capture ELISA: Ab1 on anti-human IgG Fc, His-tagged receptor at 0.04 µg/mL, anti-His HRP
[1] = molecular target: T1, hexahistidine tagged human IL-4Rα ECD E6R (human, UniProt P24394 26-232)
T1 construct: not shown: hexahistidine tag
Source text: (§1) Example 2d. […] Briefly, thirty surface amino acid residue substitutions were introduced individually into hexahistidine tagged human IL-4Rα extra cellular domain (ECD) as follows: K2D, E6R, K22D, P26R, T31R, F41A, L42G, L43G, E45R, E52R, G56R, D66R, A71R, Q82G, K87D, E94R, H107A, D108R, P124R, D125R, D143R, R148D, L155R, R160D, S164R, S168R, Q181R, P192R, K195D, or H197G. Each mutant protein having a single amino acid residue substitution as described above was transiently expressed in CHO cells and purified using standard immobilized metal affinity chromatography techniques. […] The plates were then washed 3 times with PBST and the exemplified human IL-4Rα antibody was added to the wells at a final concentration of 1 μg/mL in PBS-casein and incubated for 1 hour at room temperature. The plates were washed 3 times with PBST, the IL-4Rα mutant proteins were serially diluted 5-fold from 1 μg/mL for 3 points. in PBS-casein and added to the plate at 50 μL/well and incubated for 1 hour at room temperature. The plates were washed 3 times with PBST and a 1000-fold dilution of anti-histidine tag antibody HRP conjugate (R&D Systems, Cat. #MAB050H) in PBS-casein was added and incubated for 45 minutes at room temperature. The plates were washed 3 times, TMB substrate (Pierce, Cat. #34028) was added per manufacturer instructions, the reaction was quenched with H₂SO₄, and absorbance was read at 450 nm on an ELISA plate reader.

[2] = molecular target: T2, hexahistidine tagged human IL-4Rα ECD K22D (human, UniProt P24394 26-232)
T2 construct: not shown: hexahistidine tag
T2 sequence (P24394 26-232 K47D): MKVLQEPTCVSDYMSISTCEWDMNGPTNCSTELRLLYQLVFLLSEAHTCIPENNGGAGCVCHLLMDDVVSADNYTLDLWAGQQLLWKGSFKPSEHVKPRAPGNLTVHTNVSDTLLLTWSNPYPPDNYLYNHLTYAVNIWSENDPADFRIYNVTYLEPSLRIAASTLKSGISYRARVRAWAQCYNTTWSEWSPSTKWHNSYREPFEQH
Source text: as §1

[3] = molecular target: T3, hexahistidine tagged human IL-4Rα ECD T31R (human, UniProt P24394 26-232)
T3 construct: not shown: hexahistidine tag
T3 sequence (P24394 26-232 T56R): as the sequence (P24394 26-232 K47D) above, with D22K, T31R counted along it
Source text: as §1

[4] = molecular target: T4, hexahistidine tagged human IL-4Rα ECD F41A (human, UniProt P24394 26-232)
T4 construct: not shown: hexahistidine tag
T4 sequence (P24394 26-232 F66A): as the sequence (P24394 26-232 K47D) above, with D22K, F41A counted along it
Source text: as §1

[5] = molecular target: T5, hexahistidine tagged human IL-4Rα ECD L42G (human, UniProt P24394 26-232)
T5 construct: not shown: hexahistidine tag
Source text: as §1

[6] = molecular target: T6, hexahistidine tagged human IL-4Rα ECD L43G (human, UniProt P24394 26-232)
T6 construct: not shown: hexahistidine tag
Source text: as §1

[7] = molecular target: T7, hexahistidine tagged human IL-4Rα ECD E52R (human, UniProt P24394 26-232)
T7 construct: not shown: hexahistidine tag
Source text: as §1

[8] = molecular target: T8, hexahistidine tagged human IL-4Rα ECD G56R (human, UniProt P24394 26-232)
T8 construct: not shown: hexahistidine tag
Source text: as §1

[9] = molecular target: T9, hexahistidine tagged human IL-4Rα ECD Q82G (human, UniProt P24394 26-232)
T9 construct: not shown: hexahistidine tag
Source text: as §1

[10] = molecular target: T10, hexahistidine tagged human IL-4Rα ECD K87D (human, UniProt P24394 26-232)
T10 construct: not shown: hexahistidine tag
T10 sequence (P24394 26-232 K112D): as the sequence (P24394 26-232 K47D) above, with D22K, K87D counted along it
Source text: as §1

[11] = molecular target: T11, hexahistidine tagged human IL-4Rα ECD H107A (human, UniProt P24394 26-232)
T11 construct: not shown: hexahistidine tag
T11 sequence (P24394 26-232 H132A): as the sequence (P24394 26-232 K47D) above, with D22K, H107A counted along it
Source text: as §1

[12] = molecular target: T12, hexahistidine tagged human IL-4Rα ECD P124R (human, UniProt P24394 26-232)
T12 construct: not shown: hexahistidine tag
Source text: as §1

[13] = molecular target: T13, hexahistidine tagged human IL-4Rα ECD D125R (human, UniProt P24394 26-232)
T13 construct: not shown: hexahistidine tag
T13 sequence (P24394 26-232 D150R): as the sequence (P24394 26-232 K47D) above, with D22K, D125R counted along it
Source text: as §1

[14] = molecular target: T14, hexahistidine tagged human IL-4Rα ECD D143R (human, UniProt P24394 26-232)
T14 construct: not shown: hexahistidine tag
T14 sequence (P24394 26-232 D168R): as the sequence (P24394 26-232 K47D) above, with D22K, D143R counted along it
Source text: as §1

[15] = molecular target: T15, hexahistidine tagged human IL-4Rα ECD L155R (human, UniProt P24394 26-232)
T15 construct: not shown: hexahistidine tag
T15 sequence (P24394 26-232 L180R): as the sequence (P24394 26-232 K47D) above, with D22K, L155R counted along it
Source text: as §1

[16] = molecular target: T16, hexahistidine tagged human IL-4Rα ECD S164R (human, UniProt P24394 26-232)
T16 construct: not shown: hexahistidine tag
Source text: as §1

[17] = molecular target: T17, hexahistidine tagged human IL-4Rα ECD Q181R (human, UniProt P24394 26-232)
T17 construct: not shown: hexahistidine tag
T17 sequence (P24394 26-232 Q206R): as the sequence (P24394 26-232 K47D) above, with D22K, Q181R counted along it
Source text: as §1

[18] = molecular target: T18, hexahistidine tagged human IL-4Rα ECD K195D (human, UniProt P24394 26-232)
T18 construct: not shown: hexahistidine tag
T18 sequence (P24394 26-232 K220D): as the sequence (P24394 26-232 K47D) above, with D22K, K195D counted along it
Source text: as §1

T1 sequence (P24394 other isoform, or with tags, fused parts or gaps): as the sequence (P24394 26-232 K47D) above, with E6R, D22K counted along it

ELISA (OD450) [1]: 0.915 OD450
ELISA (OD450) [2]: 0.593 OD450
ELISA (OD450) [3]: 0.994 OD450
ELISA (OD450) [4]: 1.15 OD450
ELISA (OD450) [5]: 0.965 OD450
ELISA (OD450) [6]: 1.35 OD450
ELISA (OD450) [7]: 1.1 OD450
ELISA (OD450) [8]: 1.17 OD450
ELISA (OD450) [9]: 1.1 OD450
ELISA (OD450) [10]: 0.911 OD450
ELISA (OD450) [11]: 1.42 OD450
ELISA (OD450) [12]: 1.16 OD450
ELISA (OD450) [13]: 1.01 OD450
ELISA (OD450) [14]: 1.27 OD450
ELISA (OD450) [15]: 1.14 OD450
ELISA (OD450) [16]: 1.4 OD450
ELISA (OD450) [17]: 1.17 OD450
ELISA (OD450) [18]: 0.992 OD450
B1: anti-human IL-4Rα antibody Ab1 (antibody, human IgG4 S228P, kappa)
heavy: QVQLVESGGGLVQPGGSLRLSCVASGFTFSHSSMNWVRQAPGKGLEWVSYISRATGAVYYADSVKGRFTISRDNAKNSLYLQMNSLRDEDTAVYYCAREPVFDYWGQGTLVTVSSASTKGPCVFPLAPCSRSTSESTAALGCLVKDYFPEPVTVSWNSGALTSGVHTFPAVLQSSGLYSLSSVVTVPSSSLGTKTYTCNVDHKPSNTKVDKRVESKYGPPCPPCPAPEFLGGPSVFLFPPKPKDTLMISRTPEVTCVVVDVSQEDPEVKFNWYVDGVEVHNAKTKPREEQFNSTYRVVSVLTVLHQDWLNGKEYKCKVSNKGLPSSIEKTISKAKGQPREPQVYTLPPSREEMTKNQVSLTCLVKGFYPSDICVEWESNGQPENNYKTTPPVLDSDGSFFLYSRLTVDKSRWQQGNVFSCSVMHEALHNHYTQKSLSLSLG
light: DIQMTQSPSAMSASVGDRVTITCRASQDISNYLAWFQQKPGKVPTRLIYAASSLQSGVPSRFSGSGSGTEFTLTISSLQPEDFATYYCLQWSSYPRTFGQGTKVEIKRTVAAPSVFIFPPSDEQLKSGTASVVCLLNNFYPREAKVQWKVDNALQSGNSQESVTEQDSKDSTYSLSSTLTLSKADYEKHKVYACEVTHQGLSSPVTKSFNRGEC
notes: human kappa light chain; also called anti-human IL-4Rα Ab1; unconjugated Ab1
